This is an account of results in PMC6212398, “Competing protein-protein interactions regulate binding of Hsp27 to its client protein tau” (Nature Communications, 2018).

One test deals with Hsp27 ΔNTD GPG (human) (UniProt P04792). Kind of test: not stated; oligomeric state of Hsp27 GPG, ΔNTD and ΔNTD GPG (Supplementary Figure 8B, 8C); method not given.
Test [1] has as its target Hsp27 alpha-crystallin domain (ACD, residues Q80–S176) (human) (UniProt P04792). Nature of the test: ITC; K18 tau with Hsp27 ACD (Supplementary Figure 3B); limited by solubility. (In general: In ITC the heat of successive injections is recorded.)
Test [2] shares this target. Nature of the test: ELISA; competitive ELISA of K18 tau on Hsp27 ACD (Supplementary Figure 3A); format not told. (In general: An ELISA detects its analyte on a solid surface through an enzyme-linked reagent.)

Chain of Hsp27 alpha-crystallin domain (ACD, residues Q80–S176) (human) (P04792 80-176): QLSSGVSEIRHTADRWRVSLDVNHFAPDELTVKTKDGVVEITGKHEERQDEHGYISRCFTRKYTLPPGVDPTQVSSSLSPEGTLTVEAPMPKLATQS

In general, stoichiometry N refers to a count of units in the complex or per binding partner. In the test with Hsp27 ΔNTD GPG (human), “Hsp27 ΔNTD GPG (from UniProt P04792 80-205) (domain or fragment)” had a stoichiometry N of 2. As usually defined, the Kd is the constant that tells how readily two partners part at equilibrium. Higher therefore signals a looser complex. As a reminder, the IC50 is the point on the concentration scale where inhibition reaches its midpoint. A higher IC50 goes with lower potency. The substance “K18 tau (the four microtubule-binding repeats) (domain or fragment)” displayed a Kd in test [1] of over 100 µM. This substance also showed an IC50 in test [2] of over 100 µM.
